Here are results for one molecule from paper doi:10.1101/2021.12.02.470928.

As a reminder, the Kd is the equilibrium constant for the complex coming apart.

Common to all, as to experiment: BLI
On the technique in general: In BLI a coated tip is dipped into the sample, and binding shifts an interference pattern.

For assay [1], the target named is biotinylated MYC(1-88 Y24A).
For assay [2], the target named is biotinylated MYC(1-88 F23A).
The target of assay [3] is biotinylated MYC(1-88ΔMB0) (UniProt P01106).
The target of assay [4] is biotinylated MYC(1-88 P21A).
In assay [5] the target is biotinylated MYC(1-88 Y22A).
For assay [6], the target named is biotinyl-MB0 peptide (MYC 16-33) (UniProt P01106).

B1: PNUTS(1-148), PNUTS amino-terminal domain (PAD) (domain or fragment)
chain: MGSGPIDPKELLKGLDSFLNRDGEVKSVDGISKIFSLMKEARKMVSRCTYLNILLQTRSPEILVKFIDVGGYKLLNNWLTYSKTTNNIPLLQQILLTLQHLPLTVDHLKQNNTAKLVKQLSKSSEDEELRKLASVLVSDWMAVIRSQS
Take B1: the fold weakening of KD against wild-type MYC(1-88) in assay [1], in assay [2], in assay [4] and in assay [5] was > 5 fold throughout. The equilibrium dissociation constant (Kd) in assay [3] is > 100 µM; in assay [6] it was 9.4 µM.
